Measured values published in PMC5125011, “Soluble Siglec-5 associates to PSGL-1 and displays anti-inflammatory activity” (Scientific Reports, 2016).
Each block holds one binder with its values, some of them ahead of it.

What was measured:
[1] = biological target: T1, human soluble recombinant PSGL1 fused to human Fc (human, UniProt Q14242 18-320); assay: ELISA; sPSGL1/Fc (0.25 μg/well) adsorbed to microtiter wells; Tris-buffered saline with 2.5 mM CaCl2, 0.1% Tween-20, 3% BSA; bound sSiglec-5 probed with biotin-labeled polyclonal anti-Siglec-5 antibodies, bound P-selectin with a monoclonal anti-P-selectin antibody; controls with EDTA (5 mM) or polyclonal anti-Siglec-5 antibodies (6 μM) inhibited binding; details: both partners purified
T1 construct: P-selectin glycoprotein ligand-1 (PSGL1), human, soluble ectodomain; Sialylated glycoprotein; also called sPSGL1/Fc; soluble PSGL1/Fc; source: bought: R&D Systems (cat# 3345-PS)
T1 sequence (looked up): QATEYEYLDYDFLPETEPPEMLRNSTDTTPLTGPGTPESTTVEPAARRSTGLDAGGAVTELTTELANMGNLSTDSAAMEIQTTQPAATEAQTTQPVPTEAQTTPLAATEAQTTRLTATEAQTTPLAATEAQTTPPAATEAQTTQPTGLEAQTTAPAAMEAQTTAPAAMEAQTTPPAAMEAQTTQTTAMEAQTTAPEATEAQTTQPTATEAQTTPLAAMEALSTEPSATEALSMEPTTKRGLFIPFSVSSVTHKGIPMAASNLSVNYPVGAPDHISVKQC

[2] = biological target: the molecule itself; assay: SDS-PAGE under non-reduced and reduced conditions; purified sSiglec-5/C4BP, Coomassie-staining; about 525 kDa non-reduced, 75 kDa reduced; heptamer to single chains

- EC50 [1]: 49 ± 11 nM
B1: Recombinant soluble Siglec-5 fused to human Fc (Fc fusion, UniProt O15389 17-441, looked up)
chain: EKPVYELQVQKSVTVQEGLCVLVPCSFSYPWRSWYSSPPLYVYWFRDGEIPYYAEVVATNNPDRRVKPETQGRFRLLGDVQKKNCSLSIGDARMEDTGSYFFRVERGRDVKYSYQQNKLNLEVTALIEKPDIHFLEPLESGRPTRLSCSLPGSCEAGPPLTFSWTGNALSPLDPETTRSSELTLTPRPEDHGTNLTCQMKRQGAQVTTERTVQLNVSYAPQTITIFRNGIALEILQNTSYLPVLEGQALRLLCDAPSNPPAHLSWFQGSPALNATPISNTGILELRRVRSAEEGGFTCRAQHPLGFLQIFLNLSVYSLPQLLGPSCSWEAEGLHCRCSFRARPAPSLCWRLEEKPLEGNSSQGSFKVNSSSAGPWANSSLILHGGLSSDLKVSCKAWNIYGSQSGSVLLLQGRSNLGTGVVPAAL
notes: Siglec-5, soluble; also called sSiglec-5/Fc; sSg-5/Fc; source: bought: R&D Systems (cat# 1072-SL), produced in mouse myeloma cell-line NS0

- EC50 [1]: 8 ± 1 nM
B2: heptameric Siglec-5/C4BP fusion protein (other, UniProt O15389 17-434, looked up)
chain: EKPVYELQVQKSVTVQEGLCVLVPCSFSYPWRSWYSSPPLYVYWFRDGEIPYYAEVVATNNPDRRVKPETQGRFRLLGDVQKKNCSLSIGDARMEDTGSYFFRVERGRDVKYSYQQNKLNLEVTALIEKPDIHFLEPLESGRPTRLSCSLPGSCEAGPPLTFSWTGNALSPLDPETTRSSELTLTPRPEDHGTNLTCQMKRQGAQVTTERTVQLNVSYAPQTITIFRNGIALEILQNTSYLPVLEGQALRLLCDAPSNPPAHLSWFQGSPALNATPISNTGILELRRVRSAEEGGFTCRAQHPLGFLQIFLNLSVYSLPQLLGPSCSWEAEGLHCRCSFRARPAPSLCWRLEEKPLEGNSSQGSFKVNSSSAGPWANSSLILHGGLSSDLKVSCKAWNIYGSQSGSVLLLQGRSNLGTETPEGCEQVLTGKRLMQCLPNPEDVKMALEVYKLSLEIEQLELQRDSARQSTLDKEL
notes: Siglec-5 ectodomain, residues 17-434; also called sSiglec-5/C4BP; sSg-5/C4BP
- stoichiometry N [2]: 7
